Experimental data reported in patent publication US20200299408A1 (Genentech, published 2020).

Target: T1, murine CD3 (mouse, UniProt P22646 22-189)
T1 construct: also called mouse CD3
Assay: Biacore, monovalent KD of the CD3 arm; CD3 antigen not named on the sheet (reactivity mouse)

T1 sequence (P22646 22-189): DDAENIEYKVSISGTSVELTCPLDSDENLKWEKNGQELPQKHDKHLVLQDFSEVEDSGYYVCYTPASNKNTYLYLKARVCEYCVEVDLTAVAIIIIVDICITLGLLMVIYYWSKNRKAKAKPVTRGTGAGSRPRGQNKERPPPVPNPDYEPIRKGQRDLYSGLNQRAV

Kd: 22 nM
B1: 2C11 (antibody, V domains shown)
VH: EVQLVESGGGLVQPGKSLKLSCEASGFTFSGYGMHWVRQAPGRGLESVAYITSSSINIKYADAVKGRFTVSRDNAKNLLFLQMNILKSEDTAMYYCARFDWDKNYWGQGTMVTVSS
VL: DIQMTQSPSSLPASLGDRVTINCQASQDISNYLNWYQQKPGKAPKLLIYYTNKLADGVPSRFSGSGSGRDSSFTISSLESEDIGSYYCQQYYNYPWTFGPGTKLEIK
